# According to IntAct's records for PubMed 19040637:
# B1: Probable glutaredoxin slr1562 (Synechocystis sp. (strain PCC 6803 / Kazusa)), P74593 (parent)
# chain: MANLFNWLPLLSGRQADGIKAKVEIYTWQTCPFCIRAKLLLWWKGVKFIEYKIDGDDQARQAMAARAEGRRTVPQIFVNDQGIGGCDQLYGLDSRGQLDPLLATPPNPA
# partner: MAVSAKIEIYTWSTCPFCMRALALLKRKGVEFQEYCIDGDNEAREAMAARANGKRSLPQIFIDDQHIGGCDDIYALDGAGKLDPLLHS
# B2: Probable glutaredoxin ssr2061 (Synechocystis sp. (strain PCC 6803 / Kazusa)), P73492 (parent)
# chain: B1 partner
# partner: B1 chain
# Variants of: B1
# Details: with glrx2_syny3 glrx2, P73492
row,Variant,effect of a mutation on the interaction
1,MANLFNWLPLLSGRQADGIKAKVEIYTWQTCPFCIRAKLLLWWKGVKFIEYKIDGDDQARQAMAARAEGRRTVPQIFVNDQGIGGSDQLYGLDSRGQLDPLLATPPNPA [C86S],disrupting interaction strength
2,MANLFNWLPLLSGRQADGIKAKVEIYTWQTSPFCIRAKLLLWWKGVKFIEYKIDGDDQARQAMAARAEGRRTVPQIFVNDQGIGGCDQLYGLDSRGQLDPLLATPPNPA [C31S],decreasing interaction strength
3,MANLFNWLPLLSGRQADGIKAKVEIYTWQTCPFSIRAKLLLWWKGVKFIEYKIDGDDQARQAMAARAEGRRTVPQIFVNDQGIGGCDQLYGLDSRGQLDPLLATPPNPA [C34S],disrupting interaction strength

# Variants of: B2
# Details: with glrx1_syny3 glrx1, P74593
row,Variant,effect of a mutation on the interaction
1,MAVSAKIEIYTWSTCPFCMRAKALLKRKGVEFQEYCIDGDNEAREAMAARANGKRSLPQIFIDDQHIGGCDDIYALDGAGKLDPLLHS [L22K],decreasing interaction strength
2,MAVSAKIEIYTWSTCPFSMRALALLKRKGVEFQEYCIDGDNEAREAMAARANGKRSLPQIFIDDQHIGGCDDIYALDGAGKLDPLLHS [C18S],decreasing interaction strength
3,MAVSAKIEIYTWSTCPFCMRALALLKRKGVEFQEYSIDGDNEAREAMAARANGKRSLPQIFIDDQHIGGCDDIYALDGAGKLDPLLHS [C36S],decreasing interaction strength
